# Measurements reported in the RNAGym collection of RNA variant scans (doi:10.1093/molbev/msab373).
# B1: Azoarcus group I ribozyme (parent)
# chain: GUGCCUUGCGCCGGGAAACCACGCAAGGGAUGGUGUCAAAUUCGGCGAAACCUAAGCGCCCGCCCGGGCGUAUGGCAACGCCGAGCCAAGCUUCGGCGCCUGCGCCGAUGAAGGUGUAGAGACUAGACGGCACCCACCUAAGGCAAACGCUAUGGUGAAGGCAUAGUCCAGGGAGUGGCGAAAGUCACACAAACCGG
# Variants of: B1
# Assay: reverse-splicing fitness (ratio to wild type); higher = more active; in vitro selection; Mg2+ level not given
# Outline: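 An in vitro group I ribozyme library with randomized positions was T7-transcribed and gel-purified. In triplicate, 10 pmol RNA in EPPS pH 7.5 was reacted with 50 pmoles of a 30-nt RNA substrate for 1 h at 37 °C across several added MgCl2 levels (1–48 mM), then stopped with EDTA. Products were reverse transcribed from a substrate-complementary primer, PCR-amplified and sequenced (HiSeq 4000). Fitness is a variant's read proportion after selection over that before, normalised to wild type.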
row,Variant,reverse-splicing fitness
1,GUGCCUUGCGCCGGGAAACCACGCAAGGGAUGGUGUCAAAUUCGGCGAAACCUAAGCGCCCGCCCGGGCGUAUGGCAACGCUGAGCCAAGCUUCGGCGCCUGCGCCGAUGCAGGUGUAGGGACUAGACGGCACCCACCUAAGGCAAACGGUAUGGUGAAGGCAUAGUCAAGGGAGGGGCGAAAGUCACACAAACCGG [C82U A111C A120G C150G C169A U176G],0.0058
2,GUGCCUUGCGCCGGGAAACCACGCAAGGGAUGGUGUCAAAUUCGGCGAAACCUAAGCGCCCGCCCGGGCGUAUGGCAACGCUGAGCCAAGCUUCGGCGCCUGCGCCGAUGCAGGUGUAGGGACUAGACGGCACCCACCUAAGGCAAACGGUAUGGUGAAGGCAUAGUCGAGGGAGUGGCGAAAGUCACACAAACCGG [C82U A111C A120G C150G C169G],0.00667
3,GUGCCUUGCGCCGGGAAACCACGCAAGGGAUGGUGUCAAAUUCGGCGAAACCUAAGCGCCCGCCCGGGCGUAUGGCAACGCUGAGCCAAGCUUCGGCGCCUGCGCCGAUGCAGGUGUAGGGACUAGACGGCACCCACCUAAGGCAAACGGUAUGGUGAAGGCAUAGUCGAGGGAGAGGCGAAAGUCACACAAACCGG [C82U A111C A120G C150G C169G U176A],0.00584
4,GUGCCUUGCGCCGGGAAACCACGCAAGGGAUGGUGUCAAAUUCGGCGAAACCUAAGCGCCCGCCCGGGCGUAUGGCAACGCUGAGCCAAGCUUCGGCGCCUGCGCCGAUGCAGGUGUAGGGACUAGACGGCACCCACCUAAGGCAAACGGUAUGGUGAAGGCAUAGUCGAGGGAGCGGCGAAAGUCACACAAACCGG [C82U A111C A120G C150G C169G U176C],0.00488
5,GUGCCUUGCGCCGGGAAACCACGCAAGGGAUGGUGUCAAAUUCGGCGAAACCUAAGCGCCCGCCCGGGCGUAUGGCAACGCUGAGCCAAGCUUCGGCGCCUGCGCCGAUGCAGGUGUAGGGACUAGACGGCACCCACCUAAGGCAAACGGUAUGGUGAAGGCAUAGUCGAGGGAGGGGCGAAAGUCACACAAACCGG [C82U A111C A120G C150G C169G U176G],0.00455
6,GUGCCUUGCGCCGGGAAACCACGCAAGGGAUGGUGUCAAAUUCGGCGAAACCUAAGCGCCCGCCCGGGCGUAUGGCAACGCUGAGCCAAGCUUCGGCGCCUGCGCCGAUGCAGGUGUAGGGACUAGACGGCACCCACCUAAGGCAAACGGUAUGGUGAAGGCAUAGUCUAGGGAGUGGCGAAAGUCACACAAACCGG [C82U A111C A120G C150G C169U],0.00766
7,GUGCCUUGCGCCGGGAAACCACGCAAGGGAUGGUGUCAAAUUCGGCGAAACCUAAGCGCCCGCCCGGGCGUAUGGCAACGCUGAGCCAAGCUUCGGCGCCUGCGCCGAUGCAGGUGUAGGGACUAGACGGCACCCACCUAAGGCAAACGGUAUGGUGAAGGCAUAGUCUAGGGAGAGGCGAAAGUCACACAAACCGG [C82U A111C A120G C150G C169U U176A],0.00853
8,GUGCCUUGCGCCGGGAAACCACGCAAGGGAUGGUGUCAAAUUCGGCGAAACCUAAGCGCCCGCCCGGGCGUAUGGCAACGCUGAGCCAAGCUUCGGCGCCUGCGCCGAUGCAGGUGUAGGGACUAGACGGCACCCACCUAAGGCAAACGGUAUGGUGAAGGCAUAGUCUAGGGAGCGGCGAAAGUCACACAAACCGG [C82U A111C A120G C150G C169U U176C],0.0121
9,GUGCCUUGCGCCGGGAAACCACGCAAGGGAUGGUGUCAAAUUCGGCGAAACCUAAGCGCCCGCCCGGGCGUAUGGCAACGCUGAGCCAAGCUUCGGCGCCUGCGCCGAUGCAGGUGUAGGGACUAGACGGCACCCACCUAAGGCAAACGGUAUGGUGAAGGCAUAGUCUAGGGAGGGGCGAAAGUCACACAAACCGG [C82U A111C A120G C150G C169U U176G],0.00505
10,GUGCCUUGCGCCGGGAAACCACGCAAGGGAUGGUGUCAAAUUCGGCGAAACCUAAGCGCCCGCCCGGGCGUAUGGCAACGCUGAGCCAAGCUUCGGCGCCUGCGCCGAUGCAGGUGUAGGGACUAGACGGCACCCACCUAAGGCAAACGGUAUGGUGAAGGCAUAGUCCAGGGAGAGGCGAAAGUCACACAAACCGG [C82U A111C A120G C150G U176A],0.00789
11,GUGCCUUGCGCCGGGAAACCACGCAAGGGAUGGUGUCAAAUUCGGCGAAACCUAAGCGCCCGCCCGGGCGUAUGGCAACGCUGAGCCAAGCUUCGGCGCCUGCGCCGAUGCAGGUGUAGGGACUAGACGGCACCCACCUAAGGCAAACGGUAUGGUGAAGGCAUAGUCCAGGGAGCGGCGAAAGUCACACAAACCGG [C82U A111C A120G C150G U176C],0.013
12,GUGCCUUGCGCCGGGAAACCACGCAAGGGAUGGUGUCAAAUUCGGCGAAACCUAAGCGCCCGCCCGGGCGUAUGGCAACGCUGAGCCAAGCUUCGGCGCCUGCGCCGAUGCAGGUGUAGGGACUAGACGGCACCCACCUAAGGCAAACGGUAUGGUGAAGGCAUAGUCCAGGGAGGGGCGAAAGUCACACAAACCGG [C82U A111C A120G C150G U176G],0.00294
13,GUGCCUUGCGCCGGGAAACCACGCAAGGGAUGGUGUCAAAUUCGGCGAAACCUAAGCGCCCGCCCGGGCGUAUGGCAACGCUGAGCCAAGCUUCGGCGCCUGCGCCGAUGCAGGUGUAGGGACUAGACGGCACCCACCUAAGGCAAACGUUAUGGUGAAGGCAUAGUCCAGGGAGUGGCGAAAGUCACACAAACCGG [C82U A111C A120G C150U],0.0115
14,GUGCCUUGCGCCGGGAAACCACGCAAGGGAUGGUGUCAAAUUCGGCGAAACCUAAGCGCCCGCCCGGGCGUAUGGCAACGCUGAGCCAAGCUUCGGCGCCUGCGCCGAUGCAGGUGUAGGGACUAGACGGCACCCACCUAAGGCAAACGUUAUGGUGAAGGCAUAGUCAAGGGAGUGGCGAAAGUCACACAAACCGG [C82U A111C A120G C150U C169A],0.00877
15,GUGCCUUGCGCCGGGAAACCACGCAAGGGAUGGUGUCAAAUUCGGCGAAACCUAAGCGCCCGCCCGGGCGUAUGGCAACGCUGAGCCAAGCUUCGGCGCCUGCGCCGAUGCAGGUGUAGGGACUAGACGGCACCCACCUAAGGCAAACGUUAUGGUGAAGGCAUAGUCAAGGGAGAGGCGAAAGUCACACAAACCGG [C82U A111C A120G C150U C169A U176A],0.0142
